Source: doi:10.1101/501098 (bioRxiv, 2018)

Target: Histone H4 (Xenopus laevis), in the nucleosome (Xenopus laevis, UniProt P62799 2-103)
Assay: cryo-EM structure

B1: Dot1L(2-416) (domain or fragment)
chain: GEKLELRLKSPVGAEPAVYPWPLPVYDKHHDAAHEIIETIRWVCEEIPDLKLAMENYVLIDYDTKSFESMQRLCDKYNRAIDSIHQLWKGTTQPMKLNTRPSTGLLRHILQQVYNHSVTDPEKLNNYEPFSPEVYGETSFDLVAQMIDEIKMTDDDLFVDLGSGVGQVVLQVAAATNCKHHYGVEKADIPAKYAETMDREFRKWMKWYGKKHAEYTLERGDFLSEEWRERIANTSVIFVNNFAFGPEVDHQLKERFANMKEGGRIVSSKPFAPLNFRINSRNLSDIGTIMRVVELSPLKGSVSWTGKPVSYYLHTIDRTILENYFSSLKNPKLREEQEAARRRQQRESKSNAATPTKGPEGKVAGPADAPMDSGAEEEKAGAATVKKPSPSKARKKKLNKKGRKMAGRKRGRPKK
Q: Does B1 bind?
A: binds
